Assay: soluble on expression in E. coli; label from the status in PepcDB or PDB records

| Sequence | soluble on expression in E. coli |
| --- | --- |
| MNEKIEQAIREMGFKNFTEVQSKTIPLMLQGKNVVVRAKTGSGKTAAYAIPILELGMKSLVVTPTRELTRQVASHIRDIGRYMDTKVAEVYGGMPYKAQINRVRNADIVVATPGRLLDLWSKGVIDLSSFEIVIIDEADLMFEMGFIDDIKIILAQTSNRKITGLFSATIPEEIRKVVKDFITNYEEIEACIGLANVEHKFVHVKDDWRSKVQALRENKDKGVIVFVRTRNRVAKLVRLFDNAIELRGDLPQSVRNRNIDAFREGEYDMLITTDVASRGLDIPLVEKVINFDAPQDLRTYIHRIGRTGRMGRKGEAITFILNEYWLEKEVKKVSQKA | soluble |
| MNEKQKRFADEYIMNGCNGKKAAISAGYSKKTAESLASRLLRNVNVSEYIKERLEQIQEERLMSITEALALSASIARGEPQEAYSKKYDHLNDEVEKEVTYTITPTFEERQRSIDHILKVYGAYIDKKEITQKNIEINIGEYDDESLEHHHHHH | soluble |
| MNEKYEAVIGLEIHVQMDTKTKMFCGCKVEFGAEPNTNVCPVCLGMPGALPIVNKRAVEYAIRASLALNCEVHEESVFARKHYFYPDLPKGYQISQYEKPLATNGWVELNLPNGEKKKVRIRRLHIEEDAGKNIHEGDKTLVDLNRAGTPLMEIVTEPDIRTPEEARLFLEKLRNIMRYAGVSKADMEKGQLRCDINVSIRPKGSKEFGTRVEIKNVNSFRFVQKALEYEIERQINVVEEGGEVVQETRTFDPQTGKTYPMRTKEEAEDYRYFPDPDLVPLKVKKEWIEEIKKNMPELPDQRFERLIKEYGLSEYEAGILVNHKEVGDFFEEAVRHFKEPKGIVNWLINDLLGLLRDKGISIEESPVKPEHLAELVKLIKEKVISTKIGKEVIKEMVETGKTPSQIVEEKGLKQITDENQIKELVKKIFEKHPKEVERLKQGEEKLIGFFVGQVMRETRGKANPQVVNKVIRELVKEV | soluble |
| MNENKLRRLIKKNEYEKLDFKLKIELFTESVKKELAKDICAIANSRGGRGYIIIGVEDKTKKIVGVDADYITEERVQQIVASRIEPPVPISLEECFLDGKRLLVIVIFNSYQKPYQIRENGAFYIRRGSTTDIMRKQELLSEFQKGISFNLETCPIVNSNIDFLNEELVRRYFYLKGIKISKENREFLLSSSNIIHKNNISGKSMCTLGGLLVFSDVNSIYIPHNMIKIRNLLGGEQTFIIRGNILDMMKSMEKKLREIVPNEYPVALIIDTIRNILIYRDYSQYNKIVEVVLGKKELTVYCPGEIVKRYRDGRIGYIKRNMWIYEKIISLDSRDGEMNYNLGGKEVKESFTNKVKVITVNEENITKFIFNKYRTIGLEHHHHHH | soluble |
| MNERERVLAIKGGDHQAFIDLYNEYWSQVYDFSRLYIATIADAEEIVQDVFVKLWESRHLLKEDENIKGFLFIVTRNIVFNKNKKRVNENLFKTSVLVAYGNEGYYNSTTVEEDYCASQLKIFIDRLINSLPEQQRKCFLLSREESLSYKEIAERLGISQKTVEIHMGKALKFLKDKVKRGWEILLSLLSF | not soluble |
| MNEYFFPKLTAVEALAPYRLRTTWSTGEVLEVDVGDILRKIPDLAPILDPEAFARVHIAEWEGSVEWFDTEFGRDNVYAWAKEQAGEVSHEMFGDWMHRNNLSLTTAAEALGISRRMVSYYRTAHKIIPRTIWLACLGWEATRPETKTLPRTLPAAYAKGVSASLS | soluble |
| MNFHHLAYWQDKALSLAIENRLFINGEYTAAAENETFETVDPVTQAPLAKIARGKSVDIDRAMSAARGVFERGDWSLSSPAKRKAVLNKLADLMEAHAEELALLETLDTGKPIRHSLRDDIPGAARAIRWYAEAIDKVYGEVATTSSHELAMIVREPVGVIAAIVPWNFPLLLTCWKLGPALAAGNSVILKPSEKSPLSAIRLAGLAKEAGLPDGVLNVVTGFGHEAGQALSRHNDIDAIAFTGSTRTGKQLLKDAGDSNMKRVWLEAGGKSANIVFADCPDLQQAASATAAGIFYNQGQVCIAGTRLLLEESIADEFLALLKQQAQNWQPGHPLDPATTMGTLIDCAHADSVHSFIREGESKGQLLLDGRNAGLAAAIGPTIFVDVDPNASLSREEIFGPVLVVTRFTSEEQALQLANDSQYGLGAAVWTRDLSRAHRMSRRLKAGSVFVNNYNDGDMTVPFGGYKQSGNGRDKSLHALEKFTELKTIWISLEA | soluble |
| MNFKESRAIYLQIADRICDDILLGQYEEEGRIPSVREYASIVEVNANTVMRSYEYLQSQEVIYNKRGIGFFVASGAKMLIHSLRKEQFLKEEVGSFFRQLYTLGISIKEIEKMYYEFIQRQNQ | soluble |
| MNFMEIGTPLFEGAKKLLWLGGGELGKEMVIEAQRMGIETVVVDRYDMAPAMHVAHRKYVVNMLDGNAIKSIIKKENPDAIITEIEAINTDALLELESEGYKVIPNAKAVKICMNRIELRKLAAEKVKVPTTQYGFAENPEEVKKICKDIGYPCIIKPEMSSSGHGHEVVYNESEVEQKFKEAITHARGKSEQVIVEEYVKIDRELTVLTYRYLDDKGVVTKTITPIEHQRPSDVYYYVESWHPSTVDKDIIERAQEYATRVVNELGGFGIFGVEIIVSGNRVLFSEVSPRPHDTGLVTMASLDINEFQIHVRSALGLPTPEVKIVSPAAAHVILANNEGWAPKFLNVEKALQIPGVQIRLFGKPSTYYKRRMGVVLATGNTVEEAKEKARKAASLVLVT | soluble |
| MNFNGSLFERLADKTQKKTDLNEEERITASIATHLAKLLGTRAGSVNTLPDYGLPELNNASLSAHDTVRQSRLAIEKAIRDYEPRLSEVHVMSDESSWCVLKRTFSIDASLDMNGVKKTVVFSIAVAGDGHVILN | not soluble |
| MNGAAQADLWRLVVLNTYGGVYMDIDATLVWPLDKLLGDSQELYIRIKNNTEITNYFIATAPNNPDLQATIEQVVYNVNHYEPSMGVYHSTGPTVLNNILSAKAVIHTQDRKYVCIQGTFTNEHFQYIDKPRGKWLEHHHHHH | not soluble |
| MNGDVQSVIRGYLERAQVAKTMSDAGRWNEAGDLLRQLMTDVKSCKISASNRDEHDARNTFLRALEANLKLVQQNVRDEDDLHEAMTRQSGSPEPPADPDVWSKPSPPLPSSSKFGATKKGVGAAGPRPREISKSTSSMSTNPADVKPANPTQGILPQNSAGDSFDASAYDAYIVQAVRGTMATNTENTMSLDDIIGMHDVKQVLHEAVTLPLLVPEFFQGLRSPWKAMVLAGPPGTGKTLIARAIASESSSTFFTVSSTDLSSKWRGDSEKIVRLLFELARFYAPSIIFIDEIDTLGGQRGNSGEHEASRRVKSEFLVQMDGSQNKFDSRRVFVLAATNIPWELDEALRRRFEKRIFIPLPDIDARKKLIEKSMEGTPKSDEINYDDLAARTEGFSGADVVSLCRTAAINVLRRYFRYDTKSLRGGELTAAMESLKAELVRNIDFEAALQAVSPSAGPDTMLKCKEWCDSFGAM | not soluble |
| MNHKVHHHHHHIEGRHMAVVKEVLEIAEKIKNMEIRGAGKIARSAAYALQLQAEKSKATNVDEFWKEMKQAAKILFETRPTAVSLPNALRYVMHRGKIAYSSGADLEQLRFVIINAAKEFIHNSEKALERIGEFGAKRIEDGDVIMTHCHSKAAISVMKTAWEQGKDIKVIVTETRPKWQGKITAKELASYGIPVIYVVDSAARHYMKMTDKVVMGADSITVNGAVINKIGTALIALTAKEHRVWTMIAAETYKFHPETMLGQLVEIEMRDPTEVIPEDELKTWPKNIEVWNPAFDVTPPEYVDVIITERGIIPPYAAIDILREEFGWALKYTEPWED | soluble |
| MNHLTNQYVMLHDEKRCIGCQACTVACKVLNDVPEGFSRVQVQIRAPEQASNALTHFQFVRVSCQHCENAPCVSVCPTGASYRDENGIVQVDKSRCIGCDYCVAACPFHVRYLNPQTGVADKCNFCADTRLAAGQSPACVSVCPTDALKFGRLDESEIQRWVGQKEVYRQQEARSGAVSLYRRKEVHQEGKA | not soluble |
| MNIAKIVREAREQSRLTTLDFATGIFDEFIQLHGDRSFRDDGAVVGGIGWLGDQAVTVVGIQKGKSLQDNLKRNFGQPHPEGYRKALRLMKQAEKFGRPVVTFINTAGAYPGVGAEERGQGEAIARNLMEMSDLKVPIIAIIIGEGGSGGALALAVADRVWMLENSIYAILSPEGFASILWKDGTRAMEAAELMKITSHELLEMDVVDKVISEIGLSSKELIKSVKKELQTELARLSQKPLEELLEERYQRFRKY | not soluble |
| MNIDELIAIDVHTHAEEPCCGPRDDGYDEFQAGMAKYFKNPAGHKGMLPTVQETAAYYRERKIGCVIFPVDAERETGFRRYENEEVAKIAAENSDIMIPFASIDPAKGKAGAREARRLVREFGVKGFKFHPTMQGFYPNDRMAYPLYEAIAEEGAITLFHTGQTGVGAGLRGGMAMRLKFSNPIHLDDVAVDFPDMPIILAHPSFPWQEEALSVATHKPNVYIDMSGWSPKYFPPILVQYANSLLKHKMLFGSDWPAMTPERWLNDFANISIKDEVRPLILKENARRLLKLLEHHHHHH | not soluble |
| MNIDIKEAHRRMLYLLQSFDTVCKKHDIDYWLDYGTLLGAIRHQGFIPWDTDTDVGMLRSDYALFLEKGVPELPQDIFFQTPETEPAMAPWSWLVEARLRDRHSRYVPDKKTPAEPMQFGGLQLDLFIYDWDGKYENALSNSFERNLSESRIHLRLDEVEYLDTARFEGVEFPVPSGYDAYLTRCYGDYRTFPPEEERQIPEVVAWSVLEHHHHHH | soluble |
| MNIDLNADLGEGCASDSELLTLVSSANIACGFHAGDAQTMLTCVREALKNGVAIGAHPSFPDRDNFGRTAMVLPPETVYAQTLYQIGALGAIVQAQGGVMRHVKPHGMLYNQAAKDPHLAQAIAKAVHDYDPSLILVGLAGSELIRAGERHRLVTRQEVFADRGYQADGSLVPRMQPGALIHDEEQALAQTLDMVQAGRVKSVTGVWTTVTAQTVCIHGDGEYALAFARRLRAAFNARNIHVIALEHHHHHH | soluble |
| MNIKLYYVHDPMCSWCWGYKPTIEKLKQQLPGVIQFEYVVGGLAPDTNLPMPPEMQQKLEGIWKQIETQLGTKFNYDFWKLCTPVRSTYQSCRAVIAAGFQDSYEQMLEAIQHAYYLRAMPPHEEATHLQLAKEIGLNVQQFKNDMDGTLLEGVFQDQLSLAKSLGVNSYPSLVLQINDAYFPIEVDYLSTEPTLKLIRERIIENMSAQ | soluble |
| MNILFAVSECVPFVKSGGLADVAGALPKELKKLGVDVRIILPNYSLIPQKLRDGCTLHKVINVPLGWRNQYCGILKGEQDGITYYLIDNEYYFKRDSLYGHYDDGERFSYFSKAVLECIPHLDFEVDVLHSHDWHTAMVNFLLREKYQDNPLYERIKTVYTIHNLQFQGVFPPEVIYDLLELGDEYFHSEQLEFYGNVNFMKGGIIASDQITAVSPTYKEEIQYEFFGEKLDGLLRKYNDKLSGIVNGIDTSVYNPETDSYIKAQYDAESLYEKSENKRALQRYFGLPEKEDTPIISMVTRLTKQKGLDLVRTVFREIMEEDVQCIILGSGDSEYEQFFEWMAYEYPEKVKVYIGFNEELAHQVYAGSDLFLMPSLFEPCGLGQLIALAYGTIPIVRETGGLNDTVHSYDEETGEGNGFSFTNFNAHDMLHTIHRAIEFYHDKPVWEQLVKQAMTEDYSWEQSALAYKELYKSLME | soluble |
| MNIVVLISGNGSNLQAIIDACKTNKIKGTVRAVFSNKADAFGLERARQAGIATHTLIASAFDSREAYDRALIHEIDMYAPDVVVLAGFMRILSPAFVSHYAGRLLNIHPSLLPKYPGLHTHRQALENGDEEHGTSVHFVTDELDGGPVILQAKVPVFAGDSEDDITARVQTQEHAIYPLVISWFADGRLKMHENAAWLDGQRLPPQGYAADE | soluble |
| MNIYAFDFDEIESQEDFYRDFSQTFGLAKDKVRDLDSLWDVLMNDVLPLPLEIEFVHLGEKTRRRFGALILLFDEAEEELEGHLRFNVRH | not soluble |

From the DeepSol protein solubility set
